Results on 7 molecules are retold here after paper PMC10975490 (Toxins, 2024).

In data set [1] the target is Gloydius brevicauda basic phospholipase A2 (Gloydius brevicauda). Put plainly: inhibition of enzyme activity; PLA2 activity measured fluorometrically with 10-Pyrene-PC as substrate at various concentrations of LRG; apparent inhibition constant (Ki app) by non-linear least-squares analysis of relative PLA2 activity.
Data set [2] deals with Naja kaouthia leucine-rich α2-glycoprotein (LRG) (Naja kaouthia). In words: SDS-PAGE under reducing and non-reducing conditions.
The target in data set [3] is Protobothrops flavoviridis leucine-rich α2-glycoprotein (LRG) (Protobothrops flavoviridis). In words: SPR; BIAcore X; P. flavoviridis LRG amine-coupled to a CM5 chip; Cyt c or PLA2 as analyte; 25 °C; 50 mM HEPES, 0.05% Tween 20, pH 7.5, NaCl to ionic strength 0.2; 10 μL/min; 1:1 Langmuir model with drifting baseline, global fit; apparent Kd. A general note: In SPR one partner is held on a chip, and binding of the other changes the refractive index at the surface.

The target is the same in data set [4]. Put plainly: SDS-PAGE under reducing and non-reducing conditions.
The target in data set [5] is Laticauda semifasciata leucine-rich α2-glycoprotein (LRG) (Laticauda semifasciata). Described as above.
Data set [6] deals with the molecule itself. Described as above.
Data set [7] concerns the target T1, Protobothrops flavoviridis basic phospholipase A2 PL-X (Protobothrops flavoviridis, UniProt P06860 1-122).
T1 construct: Group II basic phospholipase A2 PL-X from the venom of Protobothrops flavoviridis; also called P. flavoviridis PL-X
T1 sequence: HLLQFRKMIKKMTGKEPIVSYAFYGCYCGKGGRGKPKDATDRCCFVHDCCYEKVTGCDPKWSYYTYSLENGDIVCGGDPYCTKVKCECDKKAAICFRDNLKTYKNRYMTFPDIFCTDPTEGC
Put plainly: inhibition of enzyme activity; PLA2 activity measured fluorometrically with 10-Pyrene-PC as substrate at various concentrations of LRG; apparent inhibition constant (Ki app) by non-linear least-squares analysis of relative PLA2 activity. The note with it: both partners purified.

Gloydius brevicauda basic phospholipase A2 (Gloydius brevicauda), sequence (O42187 17-138 limits assumed): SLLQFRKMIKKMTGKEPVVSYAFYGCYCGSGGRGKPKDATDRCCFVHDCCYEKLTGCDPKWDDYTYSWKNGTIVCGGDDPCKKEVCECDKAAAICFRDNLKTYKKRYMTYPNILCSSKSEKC

As usually defined, the stoichiometry N is a count of units in the complex or per binding partner. “Naja kaouthia leucine-rich α2-glycoprotein (LRG) (natural protein)”: the Ki in data set [1] is 350 nM. The molecule also had a stoichiometry N in data set [2] of 2.

For “Laticauda semifasciata cytochrome c (natural protein)”, the Kd in data set [3] is 0.0149 nM.

For “Protobothrops flavoviridis leucine-rich α2-glycoprotein (LRG) (natural protein)”, the stoichiometry N in data set [4] came to 2.

For the molecule “Laticauda semifasciata leucine-rich α2-glycoprotein (LRG) (natural protein)”, in data set [1], the Ki is 1030 nM. The molecule further came in with a stoichiometry N in data set [5] of 2.

Take “Elaphe climacophora leucine-rich α2-glycoprotein (PLIβ) (from UniProt C0STK7 24-332) (natural protein)”: the Ki in data set [1] worked out at 11.1 nM.

B1: Elaphe quadrivirgata PLIβ (natural protein)
chain: VLYCPPDPAPENITEFVCNSPSLHEFPTGFPVRTKLISVEFTQVSSLGVEALQGLPNLQELHLSNNRLKTLLSGLFRNLPELHTLDLSTNLLEDLPPEIFTSTTSLTLLSISENRLAKLRLSWFETLKELRILSLDNNQLKEVPISCFDKLEKLTFLDLSSNRLHRLSPDMFSGLDNLERLSLENNPIRCIAPKSFHGRPKLSIISLKNCSLTNIITGVFQPLNHLVLLDLSDNELTMLDPPVAIPSANLSLDLTGNPWACNCRMDNLLTWVKEHKIDLYSKEEIVCAFPKSFKGEEATSLHRSQICPC
Consider B1, for which the “stoichiometry N” value in data set [6] is 2.

B2: Gloydius brevicauda leucine-rich α2-glycoprotein (PLIβ) (natural protein, UniProt O93233 24-331, looked up)
chain: VLYCPPTPAPENVTEFVCNSPSLHEFPTGFPARAKMISVEFTQVSSLGVEALQGLPNLQELHLSNNRLKTLPSGLFRNLPQLHTLDLSTNHLEDLPPEIFTNASSLILLPLSENQLAELHPSWFQTLGELRILGLDHNQVKEIPISCFDKLKKLTSLDLSFNLLRRLAPEMFSGLDNLEKLILESNPIQCIVGRTFHWHPKLTVLSLKNSSLTNIMGFFQPLEQLELLDLSDNELTTMEPPVYKTSANLSLDLSGNPWACDCRLDNLLTWVNEHNIHLYSKEEIVCASPKHFKGECATSLHKSQICPC
notes: PLIβ (snake LRG) of Gloydius brevicauda (Agkistrodon blomhoffii siniticus), from serum; also called G. brevicauda LRG; G. brevicauda PLIβ
As to B2, the Ki in data set [7] came to 26.1 nM. In addition, in data set [6], the “stoichiometry N” value is 2.
